Patent US11603409B2, “Humanized DR4 antibody gene having apoptosis-inducing activity and dual-acting chimeric antigen receptor T cell or natural killer cell therapeutic agent using same” (GENEUIN-TECH CO., LTD., priority 2017, dated 2023)

Tests used:
[1] = tested on: HeLa cells, a cervical cancer cell line expressing DR4; experiment: Apoptosis induction by secretory DR4 scFv protein, MTT method, HeLa cells; type: cell-based; details: low and high concentrations, FIG. 4(B)
Procedure: (§1) To this end, apoptosis-inducing effects of secretory humanized DR4 scFv antibody recombinant protein were analyzed using HeLa cells, a cervical cancer cell line expressing DR4 on the cell surface, and HCT-116 cells, a colon cancer cell line. […] Each of these three cells was inoculated in a culture dish and cultured overnight, and then the secretory humanized DR4 scFv antibody recombinant protein was added to the culture medium, and the degree of death of the cells during culturing was determined by MTT method (Cyto X™ Cell viability assay kit, LPS solution, Korea).

[2] = tested on: HEK293 cells which do not express DR4; experiment: Apoptosis induction by secretory DR4 scFv protein, MTT method, HEK293 control cells; type: cell-based, human; details: HEK293 cells not expressing DR4; protein added to culture medium at low and high concentrations; FIG. 4(A)
Procedure: as §1

[3] = tested on: HCT-116 cells, a colon cancer cell line; experiment: Apoptosis induction by secretory DR4 scFv protein, MTT method, HCT-116 cells; type: cell-based; details: HCT-116 cells expressing DR4; low and high concentrations; FIG. 4(C)
Procedure: as §1

B1: secretory humanized DR4 scFv antibody recombinant protein: Secreted humanized anti-DR4 scFv (SEQ ID NO: 1) with isoleucine zipper, Flag and His6 tags, expressed from pCMVFL-srkDR4 in HEK293 cells (protein)
scFv: EVQLVESGGGLVQPGGSLRLSCSASGFTFSSYSMQWVRQAPGKGLEYVAGIRSDGRYTNYGAAVKGRATISRDNSKNTVYLQMNSLRAEDTAVYYCAKGAYGYCGSTCAPYLGQIDAWGQGTLVTVSSGSTSGSGKPGSGEGSTKGSYELTQPPSVSVSPGQTVRITCSGGRYTYGWFQQKPGQAPVTVIYGNDKRPSNIPSRFSGSTSGSTVTLTISGVQAEDEADYYCGGADFSAGLFGGGTKLTVL
modifications: left off: small tags and cut ends; a dimerising Fc or GST
apoptosis effect (degree of death of the cells by MTT method) [1]: apoptosis increased in proportion to the concentration | apoptosis effect (degree of death of the cells by MTT method) [2]: not observed | apoptosis effect (degree of death of the cells by MTT method) [3]: apoptosis increased in proportion to the concentration
